From US20250339519A1 (ASHER BIOTHERAPEUTICS, published 2025)

Target: human IL-21 receptor (human, UniProt Q9HBE5 20-232, limits assumed)
Assay: KD at 37 C; method and format not stated

human IL-21 receptor, sequence (Q9HBE5 20-232 limits assumed): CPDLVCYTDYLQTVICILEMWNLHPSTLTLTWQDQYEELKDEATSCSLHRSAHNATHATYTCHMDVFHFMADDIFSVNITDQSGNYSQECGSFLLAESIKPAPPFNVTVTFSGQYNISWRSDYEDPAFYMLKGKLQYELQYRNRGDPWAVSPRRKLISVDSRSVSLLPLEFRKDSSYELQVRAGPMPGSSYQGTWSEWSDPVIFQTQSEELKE

| Kd | Binder |
| --- | --- |
| 6.06 µM | IL-21 v31.23 (ligand, also called hIL21 v31.23) QGQDRHMIRMRQLIDIVDQLKNYVNDLVPEFLPAPEDVETNCEWSAFSCFQKAQLKSANTGNNERIINVSIKKLKQKPPGGEGGGGGGGEGGCPSCDSYEKKPPKEFLERFKSLLQKMIHQHLSSRTHGSEDS |
| 7.73 µM | IL-21 v31.51 (ligand, also called hIL21 v31.51) QGQDRHMIGMRQLIDIVDQLKNYVNDLVPEFLPAPEDVETNCEWSAFSCFQKAQLKSANTGNNERIINVSIKKLKRKPPGGEGGGGGGGEGGCPSCDSYEKKPPKEFLERFKSLLQKMIHQHLSSRTHGSEDS |
